From the RNAGym collection of RNA variant scans (doi:10.1093/molbev/msab373)

B1: Azoarcus group I ribozyme (parent)
chain: GUGCCUUGCGCCGGGAAACCACGCAAGGGAUGGUGUCAAAUUCGGCGAAACCUAAGCGCCCGCCCGGGCGUAUGGCAACGCCGAGCCAAGCUUCGGCGCCUGCGCCGAUGAAGGUGUAGAGACUAGACGGCACCCACCUAAGGCAAACGCUAUGGUGAAGGCAUAGUCCAGGGAGUGGCGAAAGUCACACAAACCGG

Variants of: B1
Assay: reverse-splicing fitness (ratio to wild type); higher = more active; in vitro selection; Mg2+ level not given
How it was run: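 An in vitro group I ribozyme library with randomized positions was T7-transcribed and gel-purified. In triplicate, 10 pmol RNA in EPPS pH 7.5 was reacted with 50 pmoles of a 30-nt RNA substrate for 1 h at 37 °C across several added MgCl2 levels (1–48 mM), then stopped with EDTA. Products were reverse transcribed from a substrate-complementary primer, PCR-amplified and sequenced (HiSeq 4000). Fitness is a variant's read proportion after selection over that before, normalised to wild type.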

Point of comparison: C82U A111C A120U A145G C150A C169U U176C, reverse-splicing fitness 0.00385. Against it:
- C82U A111C A120U A145U C150U C169A — lower, 0.00252
- C82U A111C A120U A145G C150A C169U U176G — lower, 0.00293
- C82U A111C A120U A145G C150A C169U U176A — higher, 0.00566
- C82U A111C A120U A145U C150U C169G U176G — lower, 0.00201
- C82U A111C A120U A145U C150U C169G U176A — lower, 0.00231
- C82U A111C A120U A145U C150U C169G U176C — lower, 0.00305
- C82U A111C A120U A145U C169G — lower, 0.00369
- C82U A111C A120U A145U C169A — lower, 0.00238
- C82U A111C A120U A145U C169U — lower, 0.00366
- C82U A111C A120U C150A — higher, 0.0078
- C82U A111C A120U C150U — higher, 0.0166
- C82U A111C A120U C150G — higher, 0.00681
- C82U A111C A120U A145U C150A U176A — lower, 0.00357
- C82U A111C A120U A145U C150A U176G — lower, 0.00247
- C82U A111C A120U A145U C150A U176C — higher, 0.00465
- C82U A111C A145C C150A U176C — higher, 0.0145
- C82U A111C A145C C150A U176A — higher, 0.0114
- C82U A111C A120G C150U C169U U176G — higher, 0.00513
- C82U A111C A120G C150U C169U U176A — higher, 0.017
- C82U A111C A120G C150U C169U U176C — higher, 0.014
- C82U A111C A120U C150G C169U U176G — lower, 0.00265
- C82U A111C A120U C150G C169U U176C — higher, 0.00516
- C82U A111C A120U C150G C169U U176A — higher, 0.00421
- C82U A111C A120U A145G C169A U176A — lower, 0.00295
- C82U A111C A120U A145G C169A U176C — lower, 0.0035
- C82U A111C A120U A145G C169A U176G — lower, 0.00196
- C82U A111C A120U A145G C150U C169U U176C — higher, 0.00415
- C82U A111C A120U A145G C150U C169U U176G — lower, 0.00271
- C82U A111C A120U A145G C150U C169U U176A — higher, 0.00522
- C82U A111C A120U A145U C150U C169U U176G — lower, 0.00223
- C82U A111C A120U A145U C150U C169U U176A — lower, 0.00267
- C82U A111C A120U A145U C150U C169U U176C — lower, 0.003
- C82U A111C A120U C150U C169G — higher, 0.00449
- C82U A111C A120U C150U C169A — higher, 0.00496
- C82U A111C A120U C150U C169U — higher, 0.00505
- C82U A111C A145C C150A C169G U176A — higher, 0.024
- C82U A111C A145C C150A C169G U176G — higher, 0.00743
- C82U A111C A145C C150A C169G U176C — higher, 0.0205
- C82U A111C A120U A145U C150A C169A — lower, 0.00298
- C82U A111C A120U A145U C150A C169G — lower, 0.00265
- C82U A111C A120U A145U C150A C169U — lower, 0.00262
- C82U A111C A120U A145G C150U C169A U176C — lower, 0.00367
- C82U A111C A120U A145G C150U C169A U176A — higher, 0.00691
- C82U A111C A120U A145G C150U C169A U176G — lower, 0.00262
- C82U A111C A145C C150A — higher, 0.0154
- C82U A111C A120U A145U C150G C169G U176A — lower, 0.00332
- C82U A111C A120U A145U C150G C169G U176C — lower, 0.00224
- C82U A111C A120U A145U C150G C169G U176G — lower, 0.0024
- C82U A111C A120U A145G C150G C169A U176C — higher, 0.00788
- C82U A111C A120U A145G C150G C169A U176G — higher, 0.00495
- C82U A111C A120U A145G C150G C169A U176A — higher, 0.0114
- C82U A111C A120G C150G C169G U176G — higher, 0.00455
- C82U A111C A120G C150G C169G U176C — higher, 0.00488
- C82U A111C A120G C150G C169G U176A — higher, 0.00584
- C82U A111C A120U C150A C169G U176G — lower, 0.00237
- C82U A111C A120U C150A C169G U176C — higher, 0.00392
- C82U A111C A120U C150A C169G U176A — higher, 0.00492
- C82U A111C A120U A145C C150A U176G — lower, 0.00265
- C82U A111C A120U A145C C150A U176A — lower, 0.00307
- C82U A111C A120U A145C C150A U176C — higher, 0.00397
- C82U A111C A120U A145U C150A C169U U176C — lower, 0.00256
- C82U A111C A120U A145U C150A C169U U176G — lower, 0.00245
- C82U A111C A120U A145U C150A C169U U176A — lower, 0.00365
- C82U A111C A120U A145C C150G C169U — higher, 0.00396
- C82U A111C A120U A145C C150G C169G — lower, 0.00351
- C82U A111C A120U A145C C150G C169A — lower, 0.00271
- C82U A111C A120U A145C C150G C169U U176C — lower, 0.00284
- C82U A111C A120U A145C C150G C169U U176A — lower, 0.00332
- C82U A111C A120U A145C C150G C169U U176G — lower, 0.00217
- C82U A111C A120U A145G C150A C169A U176A — higher, 0.00664
- C82U A111C A120U A145G C150A C169A U176C — higher, 0.00409
- C82U A111C A120U A145G C150A C169A U176G — lower, 0.00278
- C82U A111C A120U A145C C150G C169A U176C — lower, 0.00245
- C82U A111C A120U A145C C150G C169A U176G — lower, 0.0024
- C82U A111C A120U A145C C150G C169A U176A — lower, 0.00289
- C82U A111C A120U A145C C150A C169G U176A — lower, 0.00308
- C82U A111C A120U A145C C150A C169G U176G — lower, 0.00223
- C82U A111C A120U A145C C150A C169G U176C — lower, 0.00318
- C82U A111C A120U A145U C169U U176C — lower, 0.00255
- C82U A111C A120U A145U C169U U176A — lower, 0.00256
- C82U A111C A120U A145U C169U U176G — lower, 0.00166
- C82U A111C A120U A145C C150U C169U U176A — lower, 0.00314
